Results taken from US20240123058A1 (XIAMEN UNIVERSITY, published 2024).

T1: EBV gB protein ectodomain (24-683 aa) of the substituted M81 strain gB protein, C-terminal 6×His tag (EBV M81 strain, UniProt P0C762 24-683)
T1 construct: Expressed in 293F cells; also called EBV gB ectodomain
T1 chain: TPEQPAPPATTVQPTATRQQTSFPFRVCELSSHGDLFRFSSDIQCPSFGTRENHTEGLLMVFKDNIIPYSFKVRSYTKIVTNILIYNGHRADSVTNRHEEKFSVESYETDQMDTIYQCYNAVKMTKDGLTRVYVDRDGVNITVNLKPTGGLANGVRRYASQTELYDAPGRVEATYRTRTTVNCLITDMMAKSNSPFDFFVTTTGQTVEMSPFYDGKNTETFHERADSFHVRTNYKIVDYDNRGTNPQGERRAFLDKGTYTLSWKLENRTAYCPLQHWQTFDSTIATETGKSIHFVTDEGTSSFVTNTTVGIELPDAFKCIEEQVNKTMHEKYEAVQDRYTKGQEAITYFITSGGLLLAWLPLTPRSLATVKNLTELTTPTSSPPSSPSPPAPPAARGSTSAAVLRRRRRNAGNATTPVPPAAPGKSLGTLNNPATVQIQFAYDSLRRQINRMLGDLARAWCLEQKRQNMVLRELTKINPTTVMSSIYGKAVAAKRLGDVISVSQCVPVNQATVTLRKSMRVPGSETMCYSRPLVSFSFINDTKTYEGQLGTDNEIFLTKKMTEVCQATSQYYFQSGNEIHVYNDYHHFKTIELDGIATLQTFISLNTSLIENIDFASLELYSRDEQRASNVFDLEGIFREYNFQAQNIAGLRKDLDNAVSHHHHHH

T2: wild-type full-length EBV gB protein expressed on cells (EBV M81 strain, UniProt P0C762 22-857)
T2 construct: also called gB protein expressed by cells; natural gB protein
T2 chain: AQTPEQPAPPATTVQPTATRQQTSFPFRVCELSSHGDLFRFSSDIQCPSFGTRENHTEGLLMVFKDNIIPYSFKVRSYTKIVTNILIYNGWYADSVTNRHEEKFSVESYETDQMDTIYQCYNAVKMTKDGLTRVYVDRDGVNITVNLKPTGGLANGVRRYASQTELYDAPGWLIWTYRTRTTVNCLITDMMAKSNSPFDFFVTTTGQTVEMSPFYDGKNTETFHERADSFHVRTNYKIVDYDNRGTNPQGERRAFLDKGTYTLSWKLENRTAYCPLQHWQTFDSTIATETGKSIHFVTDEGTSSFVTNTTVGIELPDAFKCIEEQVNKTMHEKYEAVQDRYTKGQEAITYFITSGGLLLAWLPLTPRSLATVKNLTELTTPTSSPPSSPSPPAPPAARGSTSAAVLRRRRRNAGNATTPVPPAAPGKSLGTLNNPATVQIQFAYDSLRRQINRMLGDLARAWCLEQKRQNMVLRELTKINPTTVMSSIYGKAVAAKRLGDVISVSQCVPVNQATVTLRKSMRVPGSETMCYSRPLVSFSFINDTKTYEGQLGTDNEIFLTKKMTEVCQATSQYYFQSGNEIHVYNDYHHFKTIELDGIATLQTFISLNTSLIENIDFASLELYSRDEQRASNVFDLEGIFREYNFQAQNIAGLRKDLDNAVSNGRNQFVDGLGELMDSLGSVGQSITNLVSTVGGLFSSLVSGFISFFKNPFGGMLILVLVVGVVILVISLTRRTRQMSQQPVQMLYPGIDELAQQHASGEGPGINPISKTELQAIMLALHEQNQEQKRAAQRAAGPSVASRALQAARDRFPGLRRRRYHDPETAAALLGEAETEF

T3: gB-295~390aa
T3 construct: as f3
T3 HBc149/mut carrier with inserted gB segment: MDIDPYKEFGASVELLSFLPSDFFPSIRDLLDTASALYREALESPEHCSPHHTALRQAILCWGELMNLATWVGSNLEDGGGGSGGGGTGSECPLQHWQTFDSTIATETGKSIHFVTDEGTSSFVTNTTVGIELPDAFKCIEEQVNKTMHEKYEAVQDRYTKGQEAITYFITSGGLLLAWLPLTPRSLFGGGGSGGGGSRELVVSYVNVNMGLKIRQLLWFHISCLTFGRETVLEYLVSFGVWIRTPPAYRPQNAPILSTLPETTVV

T4: gB-528~616aa
T4 construct: as f3
T4 HBc149/mut carrier with inserted gB segment: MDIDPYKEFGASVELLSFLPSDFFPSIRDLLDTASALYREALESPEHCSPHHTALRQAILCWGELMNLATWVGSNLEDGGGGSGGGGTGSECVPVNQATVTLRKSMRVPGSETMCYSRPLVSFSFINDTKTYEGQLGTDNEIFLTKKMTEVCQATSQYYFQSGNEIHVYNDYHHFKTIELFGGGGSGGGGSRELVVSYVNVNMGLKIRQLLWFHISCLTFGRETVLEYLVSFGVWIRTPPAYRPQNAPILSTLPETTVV

T5: HBc149 protein chimerized with gB-331˜367aa epitope
T5 construct: also called Recombination protein gB aa331-367 + HBc149/mut; HBc149 chimeric protein
T5 chain: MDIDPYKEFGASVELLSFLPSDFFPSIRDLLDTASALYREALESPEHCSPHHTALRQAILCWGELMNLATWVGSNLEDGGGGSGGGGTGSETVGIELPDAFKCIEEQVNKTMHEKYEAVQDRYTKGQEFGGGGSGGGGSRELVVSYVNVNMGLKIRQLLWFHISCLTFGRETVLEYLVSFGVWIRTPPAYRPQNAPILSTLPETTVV

B1: rabbit monoclonal antibody 3A5 (antibody, V domains shown)
VH: QSVKESGGRLVTPGTPLTLTCTVSGFSLSSYEMGWVRQAPGEGLEWIGTISTGGSSYYASWAKGRFTISRTSTTVDLKMTSLTTADTATYFCARGYGGYGIGAGYFNIWGPGTLVTVSS
VL: ALVMTQTPSSVSEPVGGTVTIKCQASQSISSYLAWYQRKPGQRPKLLIYGTSTLASGVPSRFIGSGSGTDYTLTISDLECDDAATYYCQQGFSTSNVYNSFGGGTKVDIK
notes: Recombinant rabbit monoclonal antibody expressed in 293F cells; also called 3A5 antibody
B2: rabbit monoclonal antibody 3A3 (antibody, V domains shown)
VH: QSVKESGGRLVTPGTPLTLTCTVSGFSLSSYAMSWVRQAPGKGLEYIGVIYASGSTYYASWAKGRFTISRTATTVDLKITSPTTEDTATYFCGRGVSTNMWGPGTLVTVSS
VL: DLVMTQTPSSVSAAVGGTVTIKCQASQSLGGGLAWYQQKPGQRPKLLIYSASTLESGVPSRFRGSGSGTEFTLTISDLECADAATYYCQSAYGPTSNGLFNAFGGGTKVVIK
notes: Recombinant rabbit monoclonal antibody expressed in 293F cells; also called 3A3 antibody

Experiments:
[1] = molecular target: gB protein on EBV virions used in the neutralization models (Epstein-Barr virus); test: cell-based or functional assay
[2] = molecular target: T1, EBV gB protein ectodomain (24-683 aa) …; test: indirect ELISA, coated gB ectodomain
[3] = molecular target: T1, EBV gB protein ectodomain (24-683 aa) …; test: SPR, Biacore 8K, antibody captured on Protein A chip, gB as analyte
[4] = molecular target: T2, wild-type full-length EBV gB protein …; test: immunofluorescence on MDCK cells transfected with full-length wild-type gB
gB-295~390aa = molecular target: T3, gB-295~390aa; test: Western blot of gB segments displayed on HBc149, reduced and heated
[5] = molecular target: T1, EBV gB protein ectodomain (24-683 aa) …; test: indirect ELISA on coated wild-type gB ectodomain, 3A5 titrated [right panel]
[6] = molecular target: T1, EBV gB protein ectodomain (24-683 aa) …; test: SPR (Biacore 8K): antibody captured on a Protein A chip, EBV-gB as analyte at 1.5625-200 nM
gB-528~616aa = molecular target: T4, gB-528~616aa; test: Western blot of gB segments displayed on HBc149, reduced and heated
[7] = molecular target: T5, HBc149 protein chimerized with …; test: indirect ELISA on the coated HBc149 protein chimerized with gB-331~367aa, antibody titrated

Binder	IC50 on the B cell infection model [1] [µg/mL]	IC50 on the epithelial cell infection model [1] [µg/mL]	EC50 [2] [µg/mL]	Kd [3] [nM]	binding result [4]	binding result (gB-295~390aa)	EC50 (read off the curve) [5] [µg/mL]	koff [6] [s⁻¹]	kon [6] [M⁻¹ s⁻¹]	binding result (gB-528~616aa)	binding result [7]
B1	4.9	0.31	0.0052	0.411	binds	no binding (tested: 1 µg/mL)	~0.005	0.000266	648000	–	–
B2	2.97	0.07	0.007	0.863	binds	–	–	0.000162	188000	no binding (tested: 1 µg/mL)	binds
